Experimental data taken from the DeepSol protein solubility set.

Assay: soluble on expression in E. coli; label from the status in PepcDB or PDB records

| Sequence | soluble on expression in E. coli |
| --- | --- |
| MKNIYVETYGCALNRADTYVMMTLLKSEGYNFVENPENADIIILNTCAVRLETEERMKQRIKELNTLSKKLVVAGCMSSAEPATVLSIAPNASLIGPQSVERIVDIVKSEERKIVIEGDRALITPRTFDGKIAIIPVADGCAGNCSFCITKLARRKLRSYPLREIVNAARDAIQSGAREIELTGQDTAAYGLDLGGSISLVDVVNKVADIDGDFMIRIGMMTPEQAMRIMDDLIEAIRNPKVYKFIHLPVQSGDDRVLKLMNRKYTVDEYKELISEIRHKIPFVNITTDIIVGHPGEDEEAFNNTLLLMKELRFERIHLAMYSIRPNTRSASMPQVPDSIKKKRIQIANKLYEDLALSIHLDYVGSTSRVITTELGRKGSVIGRLMNYIPVVIRSENVELGKWYDVKITEASFYDLRGILALEHHHHHH | soluble |
| MGSDKIHHHHHHMTFEEFKDRLFALAKKNGVEVQISFLETREFSLRLANGDLDQYTDAGKFNVEIKVLKDGKTGTFRTQVLENPEKCFEEALSNLQVKDSEEKEYFFEGGKEYREMETYVGRFEKLSVKEKMDMAKKAHESAAKDERVVMVPTVMYKDMVIKKIITNTLGLDVESQMDGGFLFAMAIARDANPRSGSWYELARTPEDLNPEEIGKRAAEEAISLIGSKTIPSGKYPVLMRNTALLDLMEMFIPMISAENVQKNLSPLKGKLGEQVGNPAVSIKDLPYHPKGLSSTPFDDEGVPTTEKFVLENGVLKTFLHNLKTARKEGVEPTGNGFVGGIRPVNLMLMPGEKSFEELLKEMDRGVVITEVEGMHAGANSISGEFSLFAKGYWVENGEIAHGVEDITISGNFLDLLRKIVLVGNDVKVSQHTIAPSVLVEVLDVAGK | soluble |
| MSLIGFLSDRQGFEKQYHDIDLSSFGIREGISEIIASTGFEHPNAAPIGIVMKGERPFVRLFKGSHTWENVLKEKCLASNVVYDPILFVRSTFSDLVPSEFEYVDAGEFKFPVLKEAIAWVVFECINLRNTDQSLVADLVPLNAGFNERNIKELPVPNRGFNAVLEATVHATRYQLTGEEKYLELIRHYESLASKCGGDAEKKAMKLIYEALGLEGHHHHHH | soluble |
| MSLSSLDAVLSQDLIVADGPAVEVGDSLEVAYTGWLFQNHVLGQVFDSTANKDKLLRLKLGSGKVIKGWEDGMLGMKKGGKRLLIVPPACAVGSEGVIGWTQATDSILVFEVEVRRVKFAREGHHHHHH | not soluble |
| MSEVYRLTCIVCPLSCSIEVEIEAGKIKDIKGYTCPRGKEWAIEEIRAPKRVVMSVIPVEGGKLPTVSVKTEKPIPKDKIPELMKMLAKLKLKAPVKVGQVVGEFEGVKIIATREALEHHHHHH | not soluble |
| MDKTQSYDIFLIAPPGLEQVLAEEATACGFDEPRVVPGGVETRGPWSEVMRANLVLRGAGRVLVRIGGFPAVHLAQLDKRARKFAWGDFLRPDRPIRVEAVSRKSKIYHAGAAKQRVERAITEELGAPISDEAEIRLMLRIERDFCTFSIDTSGEALHKRGHKEAVGKAPMRETMAALFLRQCGFDGAEPVLDPMCGSGSFVIEAAEWAAGLMPGRSRSFAFEQLAGFDAAQWQSMRNAAGAGGRPESLYSGSDRNAGAIDASRANATRAGVADFCAFHQRPVSDIRPPEGRPGLVIVNPPYGARIGDQARLRSLYGSLGKVLMDRFSGWRVGLITSEMSLARSTRLPFQAPGPVVDHGGIKVRLYQSVRLR | not soluble |
| MGSDKIHHHHHHLDDYDDDIYDMQAGMPFNAALATVVTPSEIPGEAMIESDNDGVAYVVNPDKLTRFETNNPGQRIFYTYINADNPTGDASKKGPFISIDYLQKILTKRMDTLKENEEDIYGHDGINLITPIMGKTHLTLMFQILGFNSNIKHRISLVATEGTVPDANGYMAVELRHNAEGDRQEYPSSGYVSFPLLDVPGYKEGKLQGFKIKMNTINNGEETVTVSYNKSKSTNFPFIQKGISNTKIK | not soluble |
| MSKLPMLSQNPENIKILHTAADFRYELLKQIENAQQRIYIVALYLENDDAGREIFTALYEAKQKNPTLDINVLVDWHRAQRGLIGAEKSDGNAALYREFSEKYEHSINVLGVPVRNKEVFGVLHLKGFIFDDTVVYSGASLNDVYLAHKDKYRFDRYHVLNNALLANSMVSFIKKTLIASPAVNCLSQQNRPDTKSLKPEIKELRKQLGLANYQFTSQTRKEGEVGITPLVGLGRKGNKLNNYIRTLLASATSEITICTPYFNFPKPIAKELKKALRRGVKVTIIVGDKTANDFYISPEEEFKTIAGLPYLYEINLRNFAKANETYIASRQLSLNLWKHENNSFHLKGMWVDKEYTLITGSNLNPRAWKLDLENGLLLQDPEQLLVDTKQAELDVILEHTQLIGSYKQVDKLDSYPVEVKKLIKRIKRIKADHILNQILLEHHHHHH | soluble |
| MTKCSIIIGIFLIAAINGQASKRRIQYESVSQFLFHNSKLCGDPFSDAVWLPVLDLCSIECEITSEYCVENEELTQQCKKLPEDCQALLRKAIKQIQRHIRSQKPVYL | not soluble |
| MDRPLLIFSGQSNRPLAQAIAEALGLPLGKSTTLRFANDNLFVRYEESLREGDVFIVQSFVPPVQDHLMELLMMVDAAKGASAARVTAVIPYFSYARSDKKDAPRISITARLIADLLQTAGADRVLTMTLHSPQVHGFFKIPVDHLSAEPVIANYFATRVDLENAVVVAPDAGDLKRASALARRLGLPLAFIDKERVSDTEVRVRMLVGEVEGKTALIVDDEISTAGSLVEAVEALMQAGAKEVYAAATHGVYVGPALDRIAKSPVKEVAATDTCPPKEGPKLRTLTVAPLFAEAIWRIHRGESVSSLFT | soluble |
| MRLLPVTLLLGAVIFVSTKSTCRTRTKPPSTVPMNEVTEAVTTKKASNVTVKPTTCEASWTRVERSIGGWCLKVYNGFVHQDQASQACIRIGAELSGSESSAERAVIARLGKERMLAASDYKFGTIRVGIARPTTTRAWALTDGNNDGGQQGIQWSKGEPQLGPTSGYSHNCALMWIWASTGTSPYEHGKYFHKFVHLLGRTCTEDLFVESVLLDF | not soluble |
| MLRTFRIGGIHPPENKLSAGKPVEVLPIPSQVVIPLGQHIGAPATATVKKGDEVKVGTIIAQAGGFVSANIHSSVSGKVLKIDNVYDSSGYPKPAVFISVEGDEWEEGIDRSPAIVKECNLDAKEIVAKISAAGIVGLGGATFPTHVKLSPPPGNKAEILIINAVECEPYLTSDHVLMLEHGEEIMIGVSILMKAIQVNKAVIGVENNKKDAIAHLTKLATAYPGIEVMPLKVQYPQGGEKQLIDAVIRKQVKSGALPISTGAVVQNVGTVFAVYEAVQKNKPLVERIVTVTGKKLSRPSNLLVRIGTPIAALIEAAGGLPENTGKIIGGGPMMGRALLSPDVPVTKGSSGVLILDREEAVRKPMRDCIRCAKCVGVCPMGLNPAFLMRDTLYKSWETAEKGNVVDCIECGSCSFTCPANRPLLDYIRQAKKTVMGIQRARKQLEHHHHHH | not soluble |
| QAPEQRSIRDGILLLHELGALTDDTQADGSPQLTQIGKDLANIPVDPRMARMLVEANTLGCLHSVMVIVSALTIQDVRERPLEFQAQADQAHARFKDTT | not soluble |
| MSRVYTLLTGLLLSLIALSLQAAQLTASVDRTRLNAGETVELTLETDDVTQFGKPDMSSLEASFEVRDTRQLNSLKTLDGSSQATTRWIVTLLPRETGSVIIPSLQLGELKSQPLTLQVMQSETKEPTSHLASIFIEASLDQDSVYVQAQAVLTLRVYHSVSLFDDSSLN | not soluble |
| MDWDLITERNIQLFIQLAGLAERPLATNMFWRQGQYETYLNYHNGRIHLCQILKQTFLDEELLFKALANWKPAAFQGIPQRLFLLRDGLAMSCSPPLSSSAELWLRLHHRQIKFLESQCVHG | not soluble |
| MRKLVVGSRRSKLALTQSQQFIDKLKAVEPNLEIEIKEIVTKGDRIVDKQLSKVGGKGLFVKEIQHELFEKNIDMAIHSLKDVPSVIPEGLTLGCIPDRELPFDAYISKTHTPLSQLPEGSIIGTSSLRRGAQILSKYPNLEIKWIRGNIDTRLEKLQTEDYDAIILAAAGLRRMGWSDDIVTSYLDRDTLLPAIGQGALGIECRSDDEELLTLLSKVHNDEVAKCVTAERTFLAEMDGSCQVPIAGYATISDQNEIEFTGLIMTPDGKERFEYTMNGTDPVELGKTVSNKLKEQGAYEIIKRLNEQH | not soluble |
| MSSTMKDTQEAPVRWSRNWTPDAIRALVDQDNGKLDARIYADQDLYQLELERVFGRSWLMLGHETHIPKIGDYLTTYMGEDPVIMVRQKDQSIKVFLNQCRHRGMRIVRSDGGNAKAFTCTYHGWAYDIAGNLVNVPFEKEAFCDKKEGDCGFDKADWGPLQARVETYKGLVFANWDPEAPDLKTYLSDAMPYMDVMLDRTEAGTEAIGGIQKWVIPCNWKFAAEQFCSDMYHAGTMSHLSGVLAGLPPEMDLTQIQLSKNGNQFRSAWGGHGAGWFINDSSILLSVVGPKITQYWTQGPAAEKAARRVPQLPILDMFGQHMTVFPTCSFLPGINTIRTWHPRGPNEVEVWAFVLVDADAPEDIKEEFRLQNIRTFNAGGVFEQDDGENWVEIQRVMRGHKAKSTSLCAKMGLNVPNKNNPAYPGKTAYVYAEEAARGMYHHWSRMMSEPSWDTLKP | soluble |
| MLVVPAIDLFRGKVARMIKGRKENTIFYEKDPVELVEKLIEEGFTLIHVVDLSNAIENSGENLPVLEKLSEFAEHIQIGGGIRSLDYAEKLRKLGYRRQIVSSKVLEDPSFLKSLREIDVEPVFSLDTRGGRVAFKGWLAEEEIDPVSLLKRLKEYGLEEIVHTEIEKDGTLQEHDFSLTKKIAIEAEVKVLAAGGISSENSLKTAQKVHTETNGLLKGVIVGRAFLEGILTVEVMKRYAR | soluble |
| MIELKHLRTLQALRNTGSLAAAATQLHQTQSALSHQFSDLEQRLGFRLFVRKSQPLRFTTQGEILLQLAEQVLPQIKQALQTCNEPHQTALRIAIECHSCIQWLTPALDNFHKHWPQVTMDFKSGVTFDPQPALQQGELDLVLTSDILPRSGLHYSPMFDFEVRLVLAPDHPLANKDRIEPEDLAPEVLMIYPVQRQRLDVWRHFLQPAGVSPSSKNVDNTLLLIQMVSARMGIAALPHWVVESFERQGLVVTKTLGEGLWSRLYAAVRDGEQRQPVTEAFIRSARQHACDHLPFVKDAVRSNAGVPTAKPLSPQLQ | not soluble |
| MGSDKIHHHHHHMNFIKEKHIEIVLNQTCLNPKLSVFLPVIKKTGVQLISVFHSQPYGMYGIKAFPKICNVFGVDKVGNLVDVLIHFAFKLKYGRYLKRMLQYSDKLVMLSDKFINEFLYFSGKKYAEKMLSISNPVTINGGGSEKKEKIVLFVGRISQEKGVDKILEVWRGICHEEKYKEWRLVIVGDGEKRKQMEKYAMDMELINYSFEGFQKPDGYYDKAKIFCMASAFEGFGLVLVEAMSYGVVPMAFNSFSNCSDIIDDDKNGILVTPFSINEYRKKIIELIENDEKWMKMSTCSINKSKEYSIECIGAKWLDLFYSLLNNKVT | not soluble |
| MAHHHHHHMIVDSAVTERVVLQQQQELDAAERRCAAAEQRLEVELQKTFWRFLTTSAPDAVAAANRKQQSLGWANGGDGAGADSSLYRAEVDVSRFAEVRKAASPNPHRCNTAVAPFSPVRLVPVRTIKLSNEVGDASAAAAASRTQSPSKRSQDSALQPIVLDISPVSALSRCLGCCSGTQLGAIASSVSSAAEEHLLRLAHTRHSVLLFIGSESAAMDVMQSCKAPELLLGAGHSCRDRFQPLANHPVLRVLFTTRLWGANVVLLWNPAQDAALAVAAQAVVEDALELAYAWDADMFSVAVLEGARLPSYAGAGGVSAVATGASSTSAAFFASQAVSMEVLRQLRNSVTRELLDTAGMRRARRWQGTATWMQQGIGSAAAATTGTHMCPRAVGVLYVSQSAQQEQENQLQHQEVSCTASSIRSNAASPLRGDNSIVSVMSSSFLFSPTSPASAFRGPCITFNTPLAIRAFLPLAEEYFIREQPSLVRGSSRGGGDGHHGVSEAASSSTLNQEGGGARGLLRRTASATATEDDDASFSSEKDARFSPASLSATSAPASSPAIDAIRASGSGGEAGLRRQPEMTLESLIQYAFGDLAEIL | not soluble |
